Assay results reported in US20230110994A1, “CONJUGATES UNDERGOING INTRAMOLECULAR REARRANGEMENTS” (Ascendis Pharma A/S, priority 2020, published 2023).

Assay: Plasma pharmacokinetics of HHC^MET in Wistar rats (sandwich ELISA)
Format: in vivo
Details: n = 3
Method: This study was performed in order to investigate the plasma pharmacokinetics of HHC^MET in Wistar rats following subcutaneous and intramuscular administration of transient HHC^MET-linker hydrogel prodrug 32 or following subcutaneous or intravenous administration of free HHC^MET. Animals (n=3 per group) received either a single SC injection in the neck region or a single IM injection in the thigh musculature of a formulation of 32 (10 mg/kg HHC^MET equivalents) or a single SC injection in the neck region or IV injection in the tail vein of an HHC^MET formulation (10 mg/kg HHC^MET). At selected time points, 200 μL blood were collected in Li-Heparin tubes and processed to plasma by centrifugation at 3,000 g for 10 minutes at 4° C. HHC^MET concentrations in rat plasma were determined with an in-house developed sandwich ELISA setup. For capturing HHC^MET, a human CTLA-4 (AA Ala37-Ser160)-Fc Tag fusion protein (Supplier AcroBiosystem, Newark, Del.; USA, catalog no. CT4-H5255) was coated to the ELISA plate wells and read-out was performed via a rabbit anti-camelid VHH antibody conjugated with horseradish peroxidase (supplier Genscript, Piscataway, N.J., USA, catalog no. A01861-200).
Calibration standards of HHC^MET in blank plasma were prepared as follows: thawed Li-Heparin Wistar rat plasma was homogenized. The free HHC^MET formulation was spiked into blank plasma at concentrations between 96.0 ng/mL and 3.00 ng/mL with additional higher and lower anchor points. These solutions were used for the generation of a calibration curve. Calibration curves were analyzed via a 4-parameter […] fit and 1/Y weighted. Calibration curves were confirmed via separately prepared quality control standards at 10, 40 and 80 ng/mL.

B1: HHC^MET: custom made protein of SEQ ID NO:1, expressed from E. coli (protein)
chain: EVQLVESGGGLVQAGGSLRLSCAASGGTFSFYGMGWFRQAPGKEQEFVADIRTSAGRTYYADSVKGRFTISRDNAKNTVYLQMNSLKPEDTAVYYCAAEMSGISGWDYWGQGTQVTVSSGGGGSGGGSEVQLVESGGGLVQAGGSLRLSCAASGGTFSFYGMGWFRQAPGKEQEFVADIRTSAGRTYYADSVKGRFTISRDNAKNTVYLQMNSLKPEDTAVYYCAAEMSGISGWDYWGQGTQVTVSS
modifications: nanobody
- mean HHC^MET concentration in plasma (intravenous, 10 mg/kg, 0.25 h): 17400 ng/mL
- mean HHC^MET concentration in plasma (intravenous, 10 mg/kg, 1 h): 3530 ng/mL
- mean HHC^MET concentration in plasma (intravenous, 10 mg/kg, 4 h): 1720 ng/mL
- mean HHC^MET concentration in plasma (intravenous, 10 mg/kg, 24 h): 8.27 ng/mL
- mean HHC^MET concentration in plasma (intravenous, 10 mg/kg, 32 h): <LLOQ
- mean HHC^MET concentration in plasma (intravenous, 10 mg/kg, 48 h): <LLOQ
- mean HHC^MET concentration in plasma (intravenous, 10 mg/kg, 72 h): 1.15 ng/mL
- mean HHC^MET concentration in plasma (intravenous, 10 mg/kg, 96 h): <LLOQ
- mean HHC^MET concentration in plasma (intravenous, 10 mg/kg, 168 h): <LLOQ
- mean HHC^MET concentration in plasma (subcutaneous, 10 mg/kg HHC^MET (equivalents), 0.25 h): 2540 ng/mL
- mean HHC^MET concentration in plasma (subcutaneous, 10 mg/kg HHC^MET (equivalents), 1 h): 5090 ng/mL
- mean HHC^MET concentration in plasma (subcutaneous, 10 mg/kg HHC^MET (equivalents), 4 h): 2280 ng/mL
- mean HHC^MET concentration in plasma (subcutaneous, 10 mg/kg HHC^MET (equivalents), 24 h): 2.60 ng/mL
- mean HHC^MET concentration in plasma (subcutaneous, 10 mg/kg HHC^MET (equivalents), 32 h): <LLOQ
- mean HHC^MET concentration in plasma (subcutaneous, 10 mg/kg HHC^MET (equivalents), 48 h): <LLOQ
- mean HHC^MET concentration in plasma (subcutaneous, 10 mg/kg HHC^MET (equivalents), 72 h): 2.07 ng/mL
- mean HHC^MET concentration in plasma (subcutaneous, 10 mg/kg HHC^MET (equivalents), 96 h): <LLOQ
- mean HHC^MET concentration in plasma (subcutaneous, 10 mg/kg HHC^MET (equivalents), 168 h): <LLOQ
